Test results: patent US20200347130A1 (JIANGSU HENGRUI MEDICINE, published 2020)

Molecular target: T1, CD96 extracellular region with His tag (CD96-His) (human, UniProt P40200 22-519)
T1 construct: also called CD96-ECD-His; Bio-CD96-His (biotin-labelled form)
T1 sequence: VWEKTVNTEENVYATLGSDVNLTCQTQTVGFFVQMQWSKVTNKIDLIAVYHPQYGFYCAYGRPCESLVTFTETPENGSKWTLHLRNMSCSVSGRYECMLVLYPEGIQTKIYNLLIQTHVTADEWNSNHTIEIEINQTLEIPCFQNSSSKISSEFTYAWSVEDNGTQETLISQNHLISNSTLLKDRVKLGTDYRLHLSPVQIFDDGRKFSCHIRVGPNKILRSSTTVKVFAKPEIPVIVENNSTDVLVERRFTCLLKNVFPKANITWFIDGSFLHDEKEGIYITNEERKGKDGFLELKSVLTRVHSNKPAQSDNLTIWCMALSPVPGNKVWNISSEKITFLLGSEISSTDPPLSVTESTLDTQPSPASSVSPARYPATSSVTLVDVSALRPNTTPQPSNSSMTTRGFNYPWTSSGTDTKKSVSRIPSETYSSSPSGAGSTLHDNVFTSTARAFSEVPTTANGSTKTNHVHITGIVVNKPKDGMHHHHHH
Test: blocking cell ELISA: antibody pre-mixed with Bio-CD96-His, added to fixed CD155-CHO cells, HRP-streptavidin, OD450; blocked ligand: human CD155 on CHO cells
Experimental: CD155-CHO cells (constructed by Shanghai Hengrui) were seeded in 96-well culture plates at a density of 9×10⁴/100 μL/well and cultured overnight. After aspirating the supernatant, the plate was washed once with PBS, 100 μl/well of immunostaining fixation solution (Biyuntian, Cat No. P0098) was added and fixed for one hour at room temperature, and the plate was washed three times with PBS. After discarding the liquid, 250 μl/well of 5% skim milk (BD, Cat No. 232100) blocking solution diluted with PBS was added, and the plate was blocked in an incubator at 37° C. for 2.5 hours. After blocking, the blocking solution was discarded, subsequently, the plate was washed 4 times with PBST buffer (pH 7.4 PBS containing 0.05% tween-20). […] The absorption value was read at 450 nm with a NOVOStar microplate reader, and the EC50 value of the effect of CD96 antibody on blocking the binding between the antigens and CD155-CHO cells was calculated (see FIG. 2 and Table 16).

B1: h1719-010 (antibody, V domains shown)
VH: EVTLKESGPVLVKPTETLTLTCTVSGFSLSSYGVSWVRQPPGKGLEWLGVIWGDGNTNYHSVLISRLTISKDTSKSQVVLTLTNMDPVDTATYYCAKQNYYGSRYGYPIDYWGQGTTVTVSS
VL: DIQMTQSPSSVSASVGDRVTITCKATQDVGTAVAWYQQKPGKAPKLLIYWASTRHTGVPSRFSGSGSGTDFTLTISSLQPEDFATYYCQQYGSSVLTFGGGTKVEIK
notes: Only variable regions are tied to this name
IC50 (read off the curve): ~0.6 nM
